Assays:
[1] = target: T1, CYP1A1 (Homo sapiens, UniProt P04798); assay: inhibition of NBCeN-O-dechloroethylation in human tissue preparations and living cells ([…] in cells); format: cell-based
T1 construct: endogenous CYP1A1 in human tissue microsomes, A549 and SKOV3 cells
T1 sequence (P04798 1-512): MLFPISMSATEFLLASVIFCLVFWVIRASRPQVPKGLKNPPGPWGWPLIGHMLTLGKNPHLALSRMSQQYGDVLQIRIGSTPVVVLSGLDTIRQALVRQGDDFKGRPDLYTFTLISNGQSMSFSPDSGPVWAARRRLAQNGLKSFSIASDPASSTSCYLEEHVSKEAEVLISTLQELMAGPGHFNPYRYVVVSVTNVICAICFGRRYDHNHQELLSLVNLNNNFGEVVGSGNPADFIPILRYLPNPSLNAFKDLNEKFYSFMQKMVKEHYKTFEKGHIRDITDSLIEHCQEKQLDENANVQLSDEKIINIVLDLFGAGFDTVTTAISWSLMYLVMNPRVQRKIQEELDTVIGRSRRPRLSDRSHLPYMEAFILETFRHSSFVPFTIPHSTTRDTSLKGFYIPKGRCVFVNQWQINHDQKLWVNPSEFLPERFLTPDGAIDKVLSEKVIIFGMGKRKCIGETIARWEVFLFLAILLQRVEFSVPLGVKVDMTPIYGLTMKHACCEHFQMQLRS

[2] = substrate: CCCCN1C(=O)c2cccc3c(OCCCl)ccc(c23)C1=O; assay: purified protein; format: biochemical, Homo sapiens; conditions: heme

In the case of `Oc1ccc(/C=C/c2cc(O)cc(O)c2)cc1` [resveratrol], the “inhibition of NBCeN-O-dechloroethylation in human tissue preparations and living” value [1] is reported as “formation of NBHN could be potently inhibited by ABT (a broad CYP inhibitor) and resveratrol (a selective inhibitor of CYP1A1)”.

B1: CYP1A1 (Homo sapiens) (protein)
chain: T1 sequence (P04798 1-512)
notes: recombinant CYP1A1
B1 gave a Km ([2]; NADPH active site, O-chloroethyl group cleaved, docking suggests pi-pi stacking with Phe-224) of 0.84 µM.

B2: CYP1A2 (Homo sapiens) (protein)
chain: ALSQSVPFSATELLLASAIFCLVFWVLKGLRPRVPKGLKSPPEPWGWPLLGHVLTLGKNPHLALSRMSQRYGDVLQIRIGSTPVLVLSRLDTIRQALVRQGDDFKGRPDLYTSTLITDGQSLTFSTDSGPVWAARRRLAQNALNTFSIASDPASSSSCYLEEHVSKEAKALISRLQELMAGPGHFDPYNQVVVSVANVIGAMCFGQHFPESSDEMLSLVKNTHEFVETASSGNPLDFFPILRYLPNPALQRFKAFNQRFLWFLQKTVQEHYQDFDKNSVRDITGALFKHSKKGPRASGNLIPQEKIVNLVNDIFGAGFDTVTTAISWSLMYLVTKPEIQRKIQKELDTVIGRERRPRLSDRPQLPYLEAFILETFRHSSFLPFTIPHSTTRDTTLNGFYIPKKCCVFVNQWQVNHDPELWEDPSEFRPERFLTADGTAINKPLSEKMMLFGMGKRRCIGEVLAKWEIFLFLAILLQQLEFSVPPGVKVDLTPIYGLTMKHARCEHVQARLRFSIN
notes: recombinant CYP1A2
Molecule B2 has a Km ([2]; NADPH) of 0.81 µM.

From PMC5426458, “A practical strategy to design and develop an isoform-specific fluorescent probe for a target enzyme: CYP1A1 as a case study” (Chemical Science, 2016)
